Test results: patent publication US20220162341A1 (published 2022)

T1: ASPH (aspartyl (asparaginyl) β-hydroxylase) (Homo sapiens (Human)) (UniProt Q12797)
T1 sequence: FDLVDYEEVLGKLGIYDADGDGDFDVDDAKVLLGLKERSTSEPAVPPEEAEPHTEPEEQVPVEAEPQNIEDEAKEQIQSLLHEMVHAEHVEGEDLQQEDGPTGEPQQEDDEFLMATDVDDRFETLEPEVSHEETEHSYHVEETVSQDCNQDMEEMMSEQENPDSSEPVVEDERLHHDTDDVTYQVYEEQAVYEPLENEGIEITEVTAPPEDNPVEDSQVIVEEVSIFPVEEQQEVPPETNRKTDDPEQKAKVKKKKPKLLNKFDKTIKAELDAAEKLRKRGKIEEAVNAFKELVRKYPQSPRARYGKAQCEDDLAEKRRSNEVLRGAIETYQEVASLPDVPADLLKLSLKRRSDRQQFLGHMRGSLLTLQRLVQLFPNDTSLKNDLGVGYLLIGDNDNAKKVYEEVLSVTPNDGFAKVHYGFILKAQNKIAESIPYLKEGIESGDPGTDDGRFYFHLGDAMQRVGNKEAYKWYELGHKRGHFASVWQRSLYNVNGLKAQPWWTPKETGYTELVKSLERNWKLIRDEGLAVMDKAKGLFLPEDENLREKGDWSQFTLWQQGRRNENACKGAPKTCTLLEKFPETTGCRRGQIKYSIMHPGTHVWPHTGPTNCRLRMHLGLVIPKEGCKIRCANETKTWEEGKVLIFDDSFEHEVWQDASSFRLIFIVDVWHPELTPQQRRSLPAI

T2: ASPH (aspartyl (asparaginyl) β-hydroxylase) (Homo sapiens (Human), UniProt Q12797 75-758, limits assumed)
T2 construct: The antibodies were raised against a peptide of human ASPH; also called the ASPH protein
T2 sequence: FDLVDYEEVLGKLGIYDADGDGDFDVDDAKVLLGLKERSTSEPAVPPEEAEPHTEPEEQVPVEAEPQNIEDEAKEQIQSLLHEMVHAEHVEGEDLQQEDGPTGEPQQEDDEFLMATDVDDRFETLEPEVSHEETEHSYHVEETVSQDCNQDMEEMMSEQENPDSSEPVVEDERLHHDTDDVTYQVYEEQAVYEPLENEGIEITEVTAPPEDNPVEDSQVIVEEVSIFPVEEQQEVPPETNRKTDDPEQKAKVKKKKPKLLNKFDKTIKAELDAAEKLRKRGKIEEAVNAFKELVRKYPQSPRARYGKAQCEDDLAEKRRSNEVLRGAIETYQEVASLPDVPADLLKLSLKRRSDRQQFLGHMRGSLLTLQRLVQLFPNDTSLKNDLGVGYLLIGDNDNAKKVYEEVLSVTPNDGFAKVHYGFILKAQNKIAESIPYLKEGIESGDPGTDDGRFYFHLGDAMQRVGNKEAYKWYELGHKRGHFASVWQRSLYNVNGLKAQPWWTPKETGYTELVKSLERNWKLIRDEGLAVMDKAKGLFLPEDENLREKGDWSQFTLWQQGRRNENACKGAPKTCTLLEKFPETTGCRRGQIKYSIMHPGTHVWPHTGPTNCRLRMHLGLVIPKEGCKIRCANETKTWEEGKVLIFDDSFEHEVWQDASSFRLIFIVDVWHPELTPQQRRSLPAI


Legend:
[1] = target: T1, ASPH (aspartyl (asparaginyl) β-hydroxylase) (Homo sapiens (Human)); test: SPR (SensiQ Pioneer), antibody captured via Protein G, ASPH as analyte
[2] = target: T2, ASPH (aspartyl (asparaginyl) …); test: as above

Binder | Kd [1] | koff [1] | kon [1] | Kd [2] | kon [2]
5H4/5K3 (antibody, V domains shown) VH: QSLEESGGDLVKPGASLTLTCKASGFDFSSNAMCWVRQAPGKGPEWIACIDNGDGSTDYATWAKGRFTISKTSSTTVTLQMTSLTAADTATYFCTRNFNLWGQGTLVTVSS VL: AQVLTQTASSVSAAVGGTVTISCQSSQSVYDNNRLAWFQQKPGQPPKLLIYETSKLASGVPLRFKGSGSGTQFTLTISDLECDDAATYYCLGSYSGYIYTFGGGTEVVVKG | 144 nM | 0.00243 s⁻¹ | 16800 M⁻¹ s⁻¹ | – | –
5H1/5K1 (antibody, V domains shown) VH: QSLEESGGDLVKPGASLTLTCKASGFDFSSNAMCWVRQAPGKGPEWIACIDNGDGSTDYATWAKGRFTISKTSSTTVTLQMTSLTAADTATYFCTRNFNLWGQGTLVTVSS VL: AQVLTQTASSVSAAVGGTVTISCQSSQSVYDNNRLAWFQQKPGQPPKLLIYETSKLASGVPLRFKGSGSGTQFTLTISDLECDDAATYYCLGSYSGYIYTFGGGTEVVVK | – | – | – | 118 nM | 20400 M⁻¹ s⁻¹
